# Measurements from publication PMC3199381 (The EMBO Journal, 2011).
# Like-named read-outs stand apart in the source and are kept apart here.
# Experiments:
# T.t.MglA = molecular target: T1, T.t.MglA (Thermus thermophilus, UniProt Q5SJ82); experiment: X-ray crystal structure, […] Å; format: binding; details: no Mg2+ detected at the nucleotide
# T1 sequence (Q5SJ82 1-196): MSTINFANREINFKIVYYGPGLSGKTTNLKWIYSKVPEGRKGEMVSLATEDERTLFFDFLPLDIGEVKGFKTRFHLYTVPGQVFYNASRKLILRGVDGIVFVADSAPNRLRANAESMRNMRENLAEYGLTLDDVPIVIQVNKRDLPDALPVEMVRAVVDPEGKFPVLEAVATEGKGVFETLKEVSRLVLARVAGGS
# MglA·MglB^A5 complex = molecular target: T2, MglA·MglB^A5 complex (Thermus thermophilus, UniProt Q5SJ82); experiment: X-ray crystal structure, […] Å; format: binding; details: with AlF4- as transition state mimic
# T2 sequence (Q5SJ82 1-196): T1 sequence (Q5SJ82 1-196)
# T2 sequence (Q5SJ83 6-139 E14A/R15A/G65S/R124A/E127A/R131A partner): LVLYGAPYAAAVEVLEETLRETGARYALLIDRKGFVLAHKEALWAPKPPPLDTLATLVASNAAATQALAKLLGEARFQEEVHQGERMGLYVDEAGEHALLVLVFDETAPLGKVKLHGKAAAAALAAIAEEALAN
# [1] = molecular target: MglA from Thermus thermophilus HB8, wild type (Thermus thermophilus HB8); experiment: fluorescence polarisation
# [2] = molecular target: MglA from Thermus thermophilus HB8, wild type (Thermus thermophilus HB8); experiment: crystal structure
# [3] = molecular target: MglB from Thermus thermophilus HB8, residues 6-139 (Thermus thermophilus HB8); experiment: crystal structure
# [4] = molecular target: MglA from Thermus thermophilus HB8, wild type (Thermus thermophilus HB8); experiment: fluorescence polarisation; remark: listed apart in the source
# [5] = molecular target: MglB from Thermus thermophilus HB8, residues 6-139 (Thermus thermophilus HB8); experiment: SEC
# [6] = molecular target: MglA from Thermus thermophilus HB8, wild type (Thermus thermophilus HB8); experiment: SEC
# [7] = molecular target: MglB from Thermus thermophilus HB8, residues 6-139 (Thermus thermophilus HB8); experiment: crystal structure; remark: listed apart in the source
compound,measurement,setting,value
Nc1nc2c(ncn2[C@@H]2O[C@H](COP(=O)(O)OP(=O)(O)O)[C@@H](O)[C@H]2O)c(=O)[nH]1 [GDP],"X-ray crystal structure, 1.9 Å",T.t.MglA,3T1O (MglA·GDP)
same,"X-ray crystal structure, 2.2 Å",MglA·MglB^A5 complex,3T12 (MglA·GDP·AlF4-·MglB^A5)
"MglB^A68/72R, residues 6-139 (domain or fragment)",Kd,[1],34.6 µM
"MglB^A5 (E14/R15/R124/E127/R131A), residues 6-139 (domain or fragment)",stoichiometry N (MglB per MglA),[2],2
"MglB from Thermus thermophilus HB8, residues 6-139 (domain or fragment)",stoichiometry N,[3],4
same,Kd,[4],2 µM
same,stoichiometry N,[5],2
same,stoichiometry N (MglB per MglA),[6],2
same,Kd,[1],3.2 µM
same,stoichiometry N (MglB monomers per MglA),[1],2
same,stoichiometry N,[7],2
